Source: publication PMC4678028, “Oligomerization of Baculovirus LEF-11 Is Involved in Viral DNA Replication” (PLoS ONE, 2015)
Substitutions are numbered along the chain they refer to. Names may count otherwise.

T1: BmNPV late expression factor 11 (LEF-11), cMYC- or FLAG-tagged (Bombyx mori nucleopolyhedrovirus (BmNPV)), O92404
T1 chain: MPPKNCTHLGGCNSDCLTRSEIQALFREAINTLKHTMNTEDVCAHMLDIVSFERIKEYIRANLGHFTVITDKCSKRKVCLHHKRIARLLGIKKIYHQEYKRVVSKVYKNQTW

B1: DsRed-LEF11 (42–61) (domain or fragment)
chain: VCAHMLDIVSFERIKEYIRA
notes: LEF-11 of BmNPV, residues 42-61; source: BmN-SWU1 cells, transfected, in lysate; not shown: DsRed, N-terminal, kept
B2: BmNPV late expression factor 11 (LEF-11), cMYC- or FLAG-tagged, O92404 1-112 (natural protein)
chain: T1 chain
B3: pIZ-DsRed-LEF11-L88E&L89E (natural protein)
chain: T1 chain with L88E, L89E
notes: LEF-11 of BmNPV with L88E and L89E; Probably the whole LEF-11 as in pIZ-DsRed-LEF11; source: BmN-SWU1 cells, transfected, in lysate; not shown: DsRed, N-terminal, kept
B4: pIZ-DsRed-LEF11-I55E (natural protein)
chain: T1 chain with I55E
notes: LEF-11 of BmNPV with I55E; Probably the whole LEF-11 as in pIZ-DsRed-LEF11; source: BmN-SWU1 cells, transfected, in lysate; not shown: DsRed, N-terminal, kept
B5: pIZ-DsRed-LEF11-I85E (natural protein)
chain: T1 chain with I85E
notes: LEF-11 of BmNPV with I85E; Probably the whole LEF-11 as in pIZ-DsRed-LEF11; source: BmN-SWU1 cells, transfected, in lysate; not shown: DsRed, N-terminal, kept
B6: pIZ-DsRed-LEF11-Y58E&I59E (natural protein)
chain: T1 chain with Y58E, I59E
notes: LEF-11 of BmNPV with Y58E and I59E; Probably the whole LEF-11 as in pIZ-DsRed-LEF11; also called YE58&I59E; source: BmN-SWU1 cells, transfected, in lysate; not shown: DsRed, N-terminal, kept
B7: DsRed-LEF11 (72–101) (domain or fragment)
chain: KCSKRKVCLHHKRIARLLGIKKIYHQEYKR
notes: source: BmN-SWU1 cells, transfected, in lysate; not shown: DsRed, N-terminal, kept
B8: DsRed-LEF11 (32–61) (domain or fragment)
chain: TLKHTMNTEDVCAHMLDIVSFERIKEYIRA
notes: LEF-11 of BmNPV, residues 32-61; source: BmN-SWU1 cells, transfected, in lysate; not shown: DsRed, N-terminal, kept
B9: DsRed-LEF11 (12–61) (domain or fragment)
chain: CNSDCLTRSEIQALFREAINTLKHTMNTEDVCAHMLDIVSFERIKEYIRA
notes: LEF-11 of BmNPV, residues 12-61; source: BmN-SWU1 cells, transfected, in lysate; not shown: DsRed, N-terminal, kept
B10: DsRed-LEF11 (72–112) (domain or fragment)
chain: KCSKRKVCLHHKRIARLLGIKKIYHQEYKRVVSKVYKNQTW
notes: LEF-11 of BmNPV, residues 72-112; source: BmN-SWU1 cells, transfected, in lysate; not shown: DsRed, N-terminal, kept
B11: DsRed-LEF11 (52–61) (domain or fragment)
chain: FERIKEYIRA
notes: LEF-11 of BmNPV, residues 52-61; source: BmN-SWU1 cells, transfected, in lysate; not shown: DsRed, N-terminal, kept
B12: DsRed-LEF11 (62–112) (domain or fragment)
chain: NLGHFTVITDKCSKRKVCLHHKRIARLLGIKKIYHQEYKRVVSKVYKNQTW
notes: LEF-11 of BmNPV, residues 62-112; source: BmN-SWU1 cells, transfected, in lysate; not shown: DsRed, N-terminal, kept
B13: DsRed-LEF11 (22–61) (domain or fragment)
chain: IQALFREAINTLKHTMNTEDVCAHMLDIVSFERIKEYIRA
notes: LEF-11 of BmNPV, residues 22-61; source: BmN-SWU1 cells, transfected, in lysate; not shown: DsRed, N-terminal, kept
B14: DsRed-LEF11 (2–51) (domain or fragment)
chain: PPKNCTHLGGCNSDCLTRSEIQALFREAINTLKHTMNTEDVCAHMLDIVS
notes: LEF-11 of BmNPV, residues 2-51; source: BmN-SWU1 cells, transfected, in lysate; not shown: DsRed, N-terminal, kept
B15: DsRed-LEF11 (2–61) (domain or fragment)
chain: PPKNCTHLGGCNSDCLTRSEIQALFREAINTLKHTMNTEDVCAHMLDIVSFERIKEYIRA
notes: LEF-11 of BmNPV, residues 2-61; source: BmN-SWU1 cells, transfected, in lysate; not shown: DsRed, N-terminal, kept

Assays:
[1] = biological target: the molecule itself; assay: non-reducing SDS-PAGE with western blot; lysates of BmN-SWU1 cells transfected with pIZ-DsRed-LEF11 truncation or point mutant plasmids; loading buffer without β-mercaptoethanol; anti-DsRed blot
[2] = biological target: T1, BmNPV late expression factor 11 …; assay: non-reducing SDS-PAGE with western blot; lysate of BmN-SWU1 cells transfected with pIZ-LEF11^cMYC, 72 h.p.t.; loading buffer without β-mercaptoethanol; 12% SDS-PAGE; anti-cMYC blot; details: remark: other sources report otherwise

Binder | stoichiometry N [1] | stoichiometry N [2]
B1 | 2 | –
B2 | – | 4
B3 | 2 | –
B4 | 2 | –
B5 | 2 | –
B6 | 2 | –
B7 | 2 | –
B8 | 2 | –
B9 | 2 | –
B10 | 2 | –
B11 | 2 | –
B12 | 2 | –
B13 | 2 | –
B14 | 2 | –
B15 | 2 | –
